Literature values, collected in paper PMC6472649.
Like-named read-outs stand apart in the source and are kept apart here.

Assays:
[1] = target: SFLLRN ligand (Homo sapiens); test: FD-AFM
[2] = target: SFLLRN ligand (Homo sapiens); test: FD-AFM; remark: listed apart in the source

Substance: PAR1 (from UniProt P25116)
- Kd [1]: 0.35 µM
- Kd [2]: 40 µM
